Data as given in the supplement of paper PMC9170038.

Test system: MS2 coat protein
Assay: apparent KD of MS2 coat protein; designed switch direction (-1 OFF switch, 1 ON switch): 1; higher = weaker reporter binding
Summary of the method: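 The buffer was Tris-HCl pH 7.5 with KCl, MgCl2, BSA, DTT, tRNA and Tween-20. In it, SNAP-549-labelled MS2 coat protein was titrated in doubling steps from 0.7 or 1.5 nM to 3 µM over chip-bound RNA switches transcribed by stalled E. coli RNA polymerase on Illumina chips. Apparent KD is the per-design median over clusters of curve fits to normalised fluorescence.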

[1] = input ligand: microRNA oligo, concentration not stated
[2] = Eterna round: R95, input ligand: FMN 200 uM
[3] = Eterna round: R95, input ligand: microRNA oligo, concentration not stated
[4] = Eterna round: R95, input ligand: none

| Sequence | apparent KD of MS2 coat protein [1] | apparent KD of MS2 coat protein (input ligand: FMN 200 uM) | apparent KD of MS2 coat protein (input ligand: none) | apparent KD of MS2 coat protein [2] | apparent KD of MS2 coat protein [3] | apparent KD of MS2 coat protein [4] |
| --- | --- | --- | --- | --- | --- | --- |
| GAGUAGUUGAAAGGAUAUGCAUUGUUAUAGAAUGCAGAAGGUUCUAACAUGAGGAUCACCCAUGUAGGACUAUUCCUGUGUAUC [Parity 80 - Jieux - Same State NG 1] (Eterna round: R96, puzzle: Same State NG 1) | 7.83 nM | – | – | – | – | – |
| GAAAUAUAACAUGAGGAUCACCCAUGUACAUUGGUACGGCGGAAGGAUAUGAAAGACAUGGUCAAUUAGAAGGUCCUAUCAAAA [Eternabot solution 50] (Eterna round: R96, puzzle: Same State NG 3) | 114 nM | 102 nM | 139 nM | – | – | – |
| GGUGGGUUGCUACCGACACAUGAGGAUCACCCAUGUUUUGGGAAGGAUAUGGUACCUAUUUGGUACCAGAAGGUCCCGUUGGUG [salish99_SSNG3_r04_707] (Eterna round: R96, puzzle: Same State NG 3) | 136 nM | 136 nM | 133 nM | – | – | – |
| AGUCCAGCCAGAGCUGGACAAAAGCAUGUACAUGAGGAUCACCCAUGUUCAUGUACAAGCUUUUUGCUCGUCUUAAA [Mat - hsa-mir-208a - Mod of JL - 55] (puzzle: Sensor for hsa-mir-208a) | – | – | – | 545 nM | 15 nM | – |
| GCUAGAAUUAAAGCCAACAUGAGGAUCACCCAUGUAUGUUGGUAGGAUAUCGUUUGCAAAGCAAACGAGAAGGGCCAAACUAGC [Mat - Same State NG 3 - JL Mod - D19] (Eterna round: R96, puzzle: Same State NG 3) | 104 nM | 86.6 nM | 99.7 nM | – | – | – |
| CAUCUCCCUUUUACAUGAGGAUCACCCAUGUUUUUAUAUUGAGAGGAUAUCGUAUUUAGAAACAUCGAGAAGGCUCAUUUGUAU [JR_SSNG3_Sub072] (Eterna round: R96, puzzle: Same State NG 3) | 89.1 nM | 83.2 nM | 153 nM | – | – | – |
| GCUCGCACGAUGACCCACAUGAGGAUCACCCAUGUGCAUGGGCAGGAUAUCUAGAUUAAGGAUGUAGAGAAGGGUUGAGCGAGC [SameState NG3 #26] (Eterna round: R96, puzzle: Same State NG 3) | 192 nM | 1580 nM | 533 nM | – | – | – |
| ACAUGAGAGAAAGGAUAUCUUGUACCUACAUGUGACAUGAGGAUCACCCAUGUGGUAAGUAUGACAGAGAAGGUUCAGAUAUGU [Equivalance 71 - Jieux - Same State NG 2] (Eterna round: R96, puzzle: Same State NG 2) | 61.1 nM | 38.7 nM | 86.3 nM | – | – | – |
| AUUAAACAUGAGGAUCACCCAUGUCAACAAAGUCGAGGAUAUGGGCAAAUUAUAUAAUAACCAGAAGGCGAAUAAU [salish99_ss1_r3_083] (puzzle: Same State 1) | – | – | – | 15.2 nM | 18.9 nM | 14.2 nM |
| UUCUCCUUUUUUUACAUGAGGAUCACCCAUGUUUACCCUACGUAGGAUAUCGAUGAGUGUUUGUACGAGAAGGACGUAGUAAGU [JR_SSND3_Sub058] (Eterna round: R96, puzzle: Same State NG 3) | 106 nM | 37.4 nM | 137 nM | – | – | – |
| UGGUACAUGGGAGGAUAUGGGCAUGAGACAUGAGGAUCACCCAUGUAUUAAAAGCCGAAAGGCAUCUAGAAGGCCCAUGUACCU [JL SSNG1 3.85] (Eterna round: R96, puzzle: Same State NG 2) | 137 nM | 17.1 nM | 214 nM | – | – | – |
| UUACUCAUGUAAGGAUAUGCAGCCGAAACGGCUGCAGAAGGUACUAAAAUACAUGAGGAUCACCCAUGUCUUUUUAAUUUAGAC [Mat - Same State NG 1 - JL mod - D83] (Eterna round: R96, puzzle: Same State NG 1) | 28.4 nM | 58.4 nM | 33.3 nM | – | – | – |
| GGUAGGUUACUACCAUACAUGAGGAUCACCCAUGUAAAUGGGAAGGAUAUGGUACCUAUUUGGUACCAGAAGGUCCAAUUAAUU [JL Fiskers NG3ss - 2 mod 3] (Eterna round: R96, puzzle: Same State NG 3) | 446 nM | 148 nM | 706 nM | – | – | – |
| AGUCCAGCGAAAGCUGGACAAAAGCAUGUACAUGAGGAUCACCCAUGUUCAUGUACAAGUUUUUUGCUCGUUUUAAA [JL mod - D95 - 18] (puzzle: Sensor for hsa-mir-208a) | – | – | – | 37.8 nM | 10.3 nM | 45.8 nM |
| AGAAAACAUGAGGAUCACCCAUGUAUAGUGAAUACAGGAUAUCACCAACGGAAUAGUCGGUGAGAAGGGUGAUCGC [Zaxelate] (puzzle: Same State 1) | – | – | – | 18.5 nM | 11.3 nM | 14.2 nM |
| UGAAUAUUCACAGGAUAUGAGUUGUAAAGUGGAUCAGAAGGGUGGGUGUUUUGCACGGUGUGUUACAUGAGGAUCACCCAUGUU [SameState NG1 #24] (Eterna round: R96, puzzle: Same State NG 1) | 232 nM | 205 nM | 627 nM | – | – | – |

| Sequence | apparent KD of MS2 coat protein [1] | apparent KD of MS2 coat protein (input ligand: FMN 200 uM) | apparent KD of MS2 coat protein (input ligand: none) | apparent KD of MS2 coat protein [2] | apparent KD of MS2 coat protein [3] | apparent KD of MS2 coat protein [4] |
| --- | --- | --- | --- | --- | --- | --- |
| CGUCCGGCCUGUGCUGGCCGGAAGCUUGUACAUGAGGAUCACCCAUGUUCAUGUGCAGGCUUUUUGCUCGUCUUGUG [salish99_mir208a_009] (puzzle: Sensor for hsa-mir-208a) | – | – | – | 26.4 nM | 30.9 nM | 32.2 nM |
| AGCUAUUAAUCAGGAUAUAGGGACAUGAGGAUCACCCAUGUGUACAUGAUAAAAUGUGAUCACGUCUAGAAGGGAUUACUAACA [SameState NG2 #39] (Eterna round: R96, puzzle: Same State NG 2) | 52.5 nM | – | – | – | – | – |
| GGCGAACAGGCUAACAUGAGGAUCACCCAUGUGGACUUCGUGUAGGAUAUCGGGAAGGAGGAAACCGAGAAGGGCGAAGAAGCC [AK SSNG3-V2-49.1] (Eterna round: R96, puzzle: Same State NG 3) | 48.1 nM | 55.2 nM | 55.1 nM | – | – | – |
| AGUCCAGCCUGAGCUGGACAAAAGCAUGUACAUGAGGAUCACCCAUGUCAUGUACAAGCUUUUUGCUCGUCUUGAAA [Zipper 46 - 9] (puzzle: Sensor for hsa-mir-208a) | – | – | – | 737 nM | 16.8 nM | 807 nM |
| GUGGUCAGACAUGAGGAUCACCCAUGUGGAAUAAAUAAGGAGAAGGAUAUAGAAUAUAGGAUAUACUAGAAGGUCUGGUUGGUG (Eterna round: R96, puzzle: Same State NG 3) | 63.7 nM | – | – | – | – | – |
| AGGGUCGUGCUAGGAUAUCUAGGAUAUGGACGAGGAUUACCCGAGCAGCAUUAGCGCACCAGAGGAGAGAAGGAGCGUGAUGCG [pwkr ssNG2 2F5 2FMN.10] (Eterna round: R96, puzzle: Same State NG 2) | 2.76 nM | 329 nM | 63.7 nM | – | – | – |
| AACAAUCUAUCUGAGGAUAUCAUGAAAUAAACAUGAGGAUCACCCAUGUGCAGGAAUACUGCAUAUGAGAAGGCAGAUAGAUUGA [salish99_ss2_r3_042] (puzzle: Same State 2) | – | – | – | 86 nM | 1040 nM | 4050 nM |
| UCCGCUAUCUAGAAGGAUAUGCGUAAAUAAACAUGAGGAUCACCCAUGUACCGGCGAAAGCCGGUGCAGAAGGUUUAGCUAGUGA [Xeisgexe] (puzzle: Same State 2) | – | – | – | 38.2 nM | 574 nM | 390 nM |
| AUGCCAAAGCGAGGAUAUGGAGCCUUAUUGGCUCCAGAAGGUGUGACAUGAGGAUCACCCAUGUGGCAGUGGUCUAAUGACCAC [Eli NG1ss - 41] (Eterna round: R96, puzzle: Same State NG 1) | 64.6 nM | 63.3 nM | 86.7 nM | – | – | – |
| GUUACAUGAGGAUCACCCAUGUAUGUGUGGGAGUAAGUGUCUUAGGAUAUCUAUUAUUUAAUUUAAGAGAAGGAAGAUUGUUGU [JMF's solution 22] (Eterna round: R96, puzzle: Same State NG 3) | 82.3 nM | – | – | – | – | – |
| GCGAGCGUACUUGCAACAUGAGGAUCACCCAUGUUAACUGGACAGGAUAUGGUACCGUUUCGGUACCAGAAGGGUUCCUCAUUG [JL SSNG3 3.63] (Eterna round: R96, puzzle: Same State NG 3) | 34.7 nM | 319 nM | 437 nM | – | – | – |
| AACAAUCUAUCUGAGGAUAUCAUGAUAAUAACAUGAGGAUCACCCAUGUGCAGGAAAACUGCAUAUGAGAAGGCAGAUAGAUUGG [Mat - Same State 2 - Mod - D20] (puzzle: Same State 2) | – | – | – | 100 nM | 29.4 nM | 26.5 nM |
| AAUUAAUUAAUUAAGUACAUGAGGAUCACCCAUGUAAGUGAUCAGGAUAUCAGCUCGAAUAGAGCUGAGAAGGGAUCCAUGUAC [SSNG3/15-A1] (Eterna round: R96, puzzle: Same State NG 3) | 322 nM | 332 nM | 375 nM | – | – | – |
| AUUAUUUAUGCAGGAUAUGAUUAACAUGAGGAUCACCCAUGUGGUGUUGUGAGUAAGGAGAGUGAUCAGAAGGGCAUUUUAUUU [JMF's solution 50] (Eterna round: R96, puzzle: Same State NG 2) | 522 nM | 1560 nM | 571 nM | – | – | – |
| GGUAGGUUACUACCAAACAUGAGGAUCACCCAUGUAAGUGGGAAGGAUAUGGUACCUUUUAGGUACCAGAAGGUCCAUAUAGUU [JL Fiskers NG3ss - 2 mod 9] (Eterna round: R96, puzzle: Same State NG 3) | 141 nM | 405 nM | 501 nM | – | – | – |
